The test system of series [1] is HeLa Kyoto. In words: melting temperature (median over replicates), in situ; higher = more thermally stable.
Series [2] concerns HeLa Kyoto. As to the kind of experiment: solubility change mitosis vs G1/S (difference of NP-40 vs SDS log2 ratios) (log2 ratio difference); higher = more soluble in mitosis.
For series [3], the system named is HeLa Kyoto. As to the kind of experiment: thermal stability score vs G1/S (z-score of summed log2 fold changes over temperatures); higher = more thermally stable than in G1/S.
Series [4] relates to HeLa Kyoto. As to the kind of experiment: solubility in G1/S (NP-40 vs SDS abundance) (log2 ratio); higher = more soluble. As to conditions: cell cycle stage: G1/S.
Setting [5] is: cell cycle stage: early G1 (4.5 h after nocodazole release).
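Throughout, for melting temperature (median over replicates), in situ: HeLa Kyoto cells synchronized by double thymidine or nocodazole block, proteins quantified by TMT10plex mass spectrometry, three independent biological replicates.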
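Throughout, for solubility change mitosis vs G1/S (difference of NP-40 vs SDS log2 ratios): synchronized HeLa Kyoto cells (double thymidine block for G1/S, nocodazole release for mitosis), protein amounts in NP-40 versus SDS lysates quantified by mass spectrometry, three biological replicates.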
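Throughout, for solubility in G1/S (NP-40 vs SDS abundance): HeLa Kyoto cells arrested at G1/S by double thymidine block, proteins quantified by TMT10plex mass spectrometry in mild NP-40 versus SDS extracts, three biological replicates.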
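Throughout, for thermal stability score vs G1/S (z-score of summed log2 fold changes over temperatures): synchronized HeLa Kyoto cells, proteins quantified by TMT10plex mass spectrometry, three biological replicates, mitosis taken 0.5 h after nocodazole release, G1/S directly after double thymidine block.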

Consider “MSSSLGKEKDSKEKDPKVPSAKEREKEAKASGGFGKESKEKEPKTKGKDAKDGKKDSSAAQPGVAFSVDNTIKRPNPAPGTRKKSSNAEVIKELNKCREENSMRLDLSKRSIHILPSSIKELTQLTELYLYSNKLQSLPAEVGCLVNLMTLALSENSLTSLPDSLDNLKKLRMLDLRHNKLREIPSVVYRLDSLTTLYLRFNRITTVEKDIKNLSKLSMLSIRENKIKQLPAEIGELCNLITLDVAHNQLEHLPKEIGNCTQITNLDLQHNELLDLPDTIGNLSSLSRLGLRYNRLSAIPRSLAKCSALEELNLENNNISTLPESLLSSLVKLNSLTLARNCFQLYPVGGPSQFSTIYSLNMEHNRINKIPFGIFSRAKVLSKLNMKDNQLTSLPLDFGTWTSMVELNLATNQLTKIPEDVSGLVSLEVLILSNNLLKKLPHGLGNLRKLRELDLEENKLESLPNEIAYLKDLQKLVLTNNQLTTLPRGIGHLTNLTHLGLGENLLTHLPEEIGTLENLEELYLNDNPNLHSLPFELALCSKLSIMSIENCPLSHLPPQIVAGGPSFIIQFLKMQGPYRAMV [SHOC2]”, for which the melting temperature in series [1] (cell cycle stage: G1/S) turned out to be 52.2 °C; in series [1] (cell cycle stage: mitosis), 52.4 °C. Besides, the “solubility change mitosis (log2)” value in series [2] was -0.0856. Besides, the thermal stability score in series [3] (setting [5]) was -0.46; in series [3] (cell cycle stage: mitosis), -1.35. Besides, the “solubility in G1/S (log2)” value in series [4] was 0.421.
With “MSSSPVKRQRMESALDQLKQFTTVVADTGDFHAIDEYKPQDATTNPSLILAAAQMPAYQELVEEAIAYGRKLGGSQEDQIKNAIDKLFVLFGAEILKKIPGRVSTEVDARLSFDKDAMVARARRLIELYKEAGISKDRILIKLSSTWEGIQAGKELEEQHGIHCNMTLLFSFAQAVACAEAGVTLISPFVGRILDWHVANTDKKSYEPLEDPGVKSVTKIYNYYKKFSYKTIVMGASFRNTGEIKALAGCDFLTISPKLLGELLQDNAKLVPVLSAKAAQASDLEKIHLDEKSFRWLHNEDQMAVEKLSDGIRKFAADAVKLERMLTERMFNAENGK [TALDO1]”, the melting temperature turned out to be 54.4 °C in series [1] (cell cycle stage: G1/S) and 52.5 °C in series [1] (cell cycle stage: mitosis). Also, in series [2], the “solubility change mitosis (log2)” value is -0.00294. The values for the thermal stability score in series [3] (setting [5]) and in series [3] (cell cycle stage: mitosis) were -7.63 and -3.31, respectively. In series [4], the “solubility in G1/S (log2)” value was found to be 0.572.
With “MSSSVEQKKGPTRQRKCGFCKSNRDKECGQLLISENQKVAAHHKCMLFSSALVSSHSDNESLGGFSIEDVQKEIKRGTKLMCSLCHCPGATIGCDVKTCHRTYHYHCALHDKAQIREKPSQGIYMVYCRKHKKTAHNSEADLEESFNEHELEPSSPKSKKKSRKGRPRKTNFKGLSEDTRSTSSHGTDEMESSSYRDRSPHRSSPSDTRPKCGFCHVGEEENEARGKLHIFNAKKAAAHYKCMLFSSGTVQLTTTSRAEFGDFDIKTVLQEIKRGKRMKCTLCSQPGATIGCEIKACVKTYHYHCGVQDKAKYIENMSRGIYKLYCKNHSGNDERDEEDEERESKSRGKVEIDQQQLTQQQLNGN [PHF6]”, the melting temperature in series [1] (cell cycle stage: G1/S) stood at 48.6 °C; in series [1] (cell cycle stage: mitosis), 50.6 °C. Further, in series [2], the “solubility change mitosis (log2)” value was 0.284. Further, the thermal stability score came to 1.18 in series [3] (setting [5]) and 1.95 in series [3] (cell cycle stage: mitosis). In series [4], the “solubility in G1/S (log2)” value was -0.717.
Take “MSSTSPNLQKAIDLASKAAQEDKAGNYEEALQLYQHAVQYFLHVVKYEAQGDKAKQSIRAKCTEYLDRAEKLKEYLKNKEKKAQKPVKEGQPSPADEKGNDSDGEGESDDPEKKKLQNQLQGAIVIERPNVKWSDVAGLEGAKEALKEAVILPIKFPHLFTGKRTPWRGILLFGPPGTGKSYLAKAVATEANNSTFFSISSSDLVSKWLGESEKLVKNLFQLARENKPSIIFIDEIDSLCGSRSENESEAARRIKTEFLVQMQGVGVDNDGILVLGATNIPWVLDSAIRRRFEKRIYIPLPEPHARAAMFKLHLGTTQNSLTEADFRELGRKTDGYSGADISIIVRDALMQPVRKVQSATHFKKVRGPSRADPNHLVDDLLTPCSPGDPGAIEMTWMDVPGDKLLEPVVSMSDMLRSLSNTKPTVNEHDLLKLKKFTEDFGQEG [VPS4B]”: the figures for the melting temperature in series [1] (cell cycle stage: G1/S) and in series [1] (cell cycle stage: mitosis) were 50.5 °C and 50.2 °C, respectively. Besides, the “solubility change mitosis (log2)” value in series [2] is -0.125. Further, the figures for the thermal stability score in series [3] (setting [5]) and in series [3] (cell cycle stage: mitosis) were 0.98 and 1.43, respectively. Further, the “solubility in G1/S (log2)” value in series [4] turned out to be 0.414.
For “MSSVSPIQIPSRLPLLLTHEGVLLPGSTMRTSVDSARNLQLVRSRLLKGTSLQSTILGVIPNTPDPASDAQDLPPLHRIGTAALAVQVVGSNWPKPHYTLLITGLCRFQIVQVLKEKPYPIAEVEQLDRLEEFPNTCKMREELGELSEQFYKYAVQLVEMLDMSVPAVAKLRRLLDSLPREALPDILTSIIRTSNKEKLQILDAVSLEERFKMTIPLLVRQIEGLKLLQKTRKPKQDDDKRVIAIRPIRRITHISGTLEDEDEDEDNDDIVMLEKKIRTSSMPEQAHKVCVKEIKRLKKMPQSMPEYALTRNYLELMVELPWNKSTTDRLDIRAARILLDNDHYAMEKLKKRVLEYLAVRQLKNNLKGPILCFVGPPGVGKTSVGRSVAKTLGREFHRIALGGVCDQSDIRGHRRTYVGSMPGRIINGLKTVGVNNPVFLLDEVDKLGKSLQGDPAAALLEVLDPEQNHNFTDHYLNVAFDLSQVLFIATANTTATIPAALLDRMEIIQVPGYTQEEKIEIAHRHLIPKQLEQHGLTPQQIQIPQVTTLDIITRYTREAGVRSLDRKLGAICRAVAVKVAEGQHKEAKLDRSDVTEREGCREHILEDEKPESISDTTDLALPPEMPILIDFHALKDILGPPMYEMEVSQRLSQPGVAIGLAWTPLGGEIMFVEASRMDGEGQLTLTGQLGDVMKESAHLAISWLRSNAKKYQLTNAFGSFDLLDNTDIHLHFPAGAVTKDGPSAGVTIVTCLASLFSGRLVRSDVAMTGEITLRGLVLPVGGIKDKVLAAHRAGLKQVIIPRRNEKDLEGIPGNVRQDLSFVTASCLDEVLNAAFDGGFTVKTRPGLLNSKL [LONP2]”, the melting temperature was found to be 52.3 °C in series [1] (cell cycle stage: G1/S) and 52.1 °C in series [1] (cell cycle stage: mitosis). Also, the “solubility change mitosis (log2)” value in series [2] was -0.132. The results for the thermal stability score in series [3] (setting [5]) and in series [3] (cell cycle stage: mitosis) were 0.257 and 0.49, respectively. For the same sequence, the “solubility in G1/S (log2)” value in series [4] was found to be 0.0116.
For the sequence “MSTGDSFETRFEKMDNLLRDPKSEVNSDCLLDGLDALVYDLDFPALRKNKNIDNFLSRYKDTINKIRDLRMKAEDYEVVKVIGRGAFGEVQLVRHKSTRKVYAMKLLSKFEMIKRSDSAFFWEERDIMAFANSPWVVQLFYAFQDDRYLYMVMEYMPGGDLVNLMSNYDVPEKWARFYTAEVVLALDAIHSMGFIHRDVKPDNMLLDKSGHLKLADFGTCMKMNKEGMVRCDTAVGTPDYISPEVLKSQGGDGYYGRECDWWSVGVFLYEMLVGDTPFYADSLVGTYSKIMNHKNSLTFPDDNDISKEAKNLICAFLTDREVRLGRNGVEEIKRHLFFKNDQWAWETLRDTVAPVVPDLSSDIDTSNFDDLEEDKGEEETFPIPKAFVGNQLPFVGFTYYSNRRYLSSANPNDNRTSSNADKSLQESLQKTIYKLEEQLHNEMQLKDEMEQKCRTSNIKLDKIMKELDEEGNQRRNLESTVSQIEKEKMLLQHRINEYQRKAEQENEKRRNVENEVSTLKDQLEDLKKVSQNSQLANEKLSQLQKQLEEANDLLRTESDTAVRLRKSHTEMSKSISQLESLNRELQERNRILENSKSQTDKDYYQLQAILEAERRDRGHDSEMIGDLQARITSLQEEVKHLKHNLEKVEGERKEAQDMLNHSEKEKNNLEIDLNYKLKSLQQRLEQEVNEHKVTKARLTDKHQSIEEAKSVAMCEMEKKLKEEREAREKAENRVVQIEKQCSMLDVDLKQSQQKLEHLTGNKERMEDEVKNLTLQLEQESNKRLLLQNELKTQAFEADNLKGLEKQMKQEINTLLEAKRLLEFELAQLTKQYRGNEGQMRELQDQLEAEQYFSTLYKTQVKELKEEIEEKNRENLKKIQELQNEKETLATQLDLAETKAESEQLARGLLEEQYFELTQESKKAASRNRQEITDKDHTVSRLEEANSMLTKDIEILRRENEELTEKMKKAEEEYKLEKEEEISNLKAAFEKNINTERTLKTQAVNKLAEIMNRKDFKIDRKKANTQDLRKKEKENRKLQLELNQEREKFNQMVVKHQKELNDMQAQLVEECAHRNELQMQLASKESDIEQLRAKLLDLSDSTSVASFPSADETDGNLPESRIEGWLSVPNRGNIKRYGWKKQYVVVSSKKILFYNDEQDKEQSNPSMVLDIDKLFHVRPVTQGDVYRAETEEIPKIFQILYANEGECRKDVEMEPVQQAEKTNFQNHKGHEFIPTLYHFPANCDACAKPLWHVFKPPPALECRRCHVKCHRDHLDKKEDLICPCKVSYDVTSARDMLLLACSQDEQKKWVTHLVKKIPKNPPSGFVRASPRTLSTRSTANQSFRKVVKNTSGKTS [ROCK1]”, the melting temperature in series [1] (cell cycle stage: G1/S) was determined as 50.4 °C; in series [1] (cell cycle stage: mitosis) it was 50.2 °C. Besides, the “solubility change mitosis (log2)” value in series [2] was -0.138. The thermal stability score is -0.147 in series [3] (setting [5]) and -0.118 in series [3] (cell cycle stage: mitosis). Also, in series [4], the “solubility in G1/S (log2)” value is -0.0278.
With “MSTKNFRVSDGDWICPDKKCGNVNFARRTSCNRCGREKTTEAKMMKAGGTEIGKTLAEKSRGLFSANDWQCKTCSNVNWARRSECNMCNTPKYAKLEERTGYGGGFNERENVEYIEREESDGEYDEFGRKKKKYRGKAVGPASILKEVEDKESEGEEEDEDEDLSKYKLDEDEDEDDADLSKYNLDASEEEDSNKKKSNRRSRSKSRSSHSRSSSRSSSPSSSRSRSRSRSRSSSSSQSRSRSSSRERSRSRGSKSRSSSRSHRGSSSPRKRSYSSSSSSPERNRKRSRSRSSSSGDRKKRRTRSRSPERRHRSSSGSSHSGSRSSSKKK [ZRANB2]”, in series [1] (cell cycle stage: G1/S), the melting temperature came out at 58 °C. For the same sequence, the “solubility change mitosis (log2)” value in series [2] is -0.011. The results for the thermal stability score in series [3] (setting [5]) and in series [3] (cell cycle stage: mitosis) were 0.299 and 0.397, respectively. Besides, the “solubility in G1/S (log2)” value in series [4] is -0.0186.
“MSTPAVPQDLQLPPSQRAQSAFKEQRRQKLKEHLLRRKTLFAYKQENEMLSSSRDQRVVTSEDQVQEGTKVLKLKTKMADKENMKRPAESKNNTVVGKHCIPLKPSNELTNSTVVIDTHKPKDSNQTPHLLLTEDDPQSQHMTLSQAFHLKNNSKKKQMTTEKQKQDANMPKKPVLGSYRGQIVQSKINSFRKPLQVKDESSAATKKLSATIPKATKPQPVNTSSVTVKSNRSSNMTATTKFVSTTSQNTQLVRPPIRSHHSNTRDTVKQGISRTSANVTIRKGPHEKELLQSKTALSSVKTSSSQGIIRNKTLSRSIASEVIARPASLSNDKLMEKSEPVDQRRHTAGKAIVDSRSAQPKETSEERKARLSEWKAGKGRVLKRPPNSVVTQHEPAGQNEKPVGSFWTTMAEEDEQRLFTEKVNNTFSECLNLINEGCPKEDILVTLNDLIKNIPDAKKLVKYWICLALIEPITSPIENIIAIYEKAILAGAQPIEEMRHTIVDILTMKSQEKANLGENMEKSCASKEEVKEVSIEDTGVDVDPEKLEMESKLHRNLLFQDCEKEQDNKTKDPTHDVKTPNTETRTSCLIKYNVSTTPYLQSVKKKVQFDGTNSAFKELKFLTPVRRSRRLQEKTSKLPDMLKDHYPCVSSLEQLTELGRETDAFVCRPNAALCRVYYEADTT [CKAP2]”: the melting temperature turned out to be 51 °C in series [1] (cell cycle stage: G1/S) and 49.3 °C in series [1] (cell cycle stage: mitosis). Besides, the “solubility change mitosis (log2)” value in series [2] turned out to be 0.657. Besides, the values for the thermal stability score in series [3] (setting [5]) and in series [3] (cell cycle stage: mitosis) were -1.31 and -0.259, respectively. The “solubility in G1/S (log2)” value in series [4] was -0.733.

These data come from the supplement of paper PMC5998384.
